The values below come from PMC11045720.

Usually stoichiometry N stands for the number of molecules, sites or subunits per partner or assembly.

Test [1] concerns the target Alcohol dehydrogenase from baker's yeast (baker's yeast) (UniProt P00330). The test is described as follows: mass photometry (native, nMP); samples diluted in their native buffer to 100-400 nM, then drop-diluted to 10-40 nM in a PBS droplet; room temperature (18 °C); triplicates.
Test [2] shares this target. The test is described as follows: cross-linking; DSBU at 25:1 to 1000:1 molar excess on 1 mg/mL protein, 45 min at room temperature (20 °C), quenched with Tris HCl; read by denaturing mass photometry (5 min in 5.4 M urea) and SDS-PAGE.
The target in test [3] is Human 20 S proteasome (human). Kind of test: cross-linking; formaldehyde 0.05% to 1% (vol/vol) on 1 mg/mL protein, 20 min at room temperature; read by denaturing mass photometry.
Test [4] concerns the target Human 20 S proteasome (human). The test is described as follows: mass photometry (native, nMP); samples diluted in their native buffer to 100-400 nM, then drop-diluted to 10-40 nM in a PBS droplet; room temperature (18 °C); triplicates.

In test [1], “Alcohol dehydrogenase from baker's yeast (from UniProt P00330 1-348) (enzyme)” came in with a percent of detected species that are monomers (nMP) of 46% and a stoichiometry N of 4. For the same substance, the stoichiometry N in test [2] was 4.
Turning to Human 20 S proteasome (complex), the stoichiometry N in test [3] was 28. In test [4], the percent of detected species that are monomers (nMP) is 51% and the stoichiometry N is 28.
